In patent US20120027773A1 (AVEO PHARMACEUTICALS, published 2012):

Legend:
[1] = target: T1, human wild-type RON (cell surface) (human, UniProt Q04912 25-1400); assay: FACS titration on PC3 cells, 4 C
T1 construct: whole, on cells; also called Human RON; wt RON
Description: Binding to cell surface human wild-type RON and the delta 160 RON variant by antibodies 29B06 and 07F01 was measured at 4° C., using Fluorescence Activated Cell Sorting (FACS). PC3 cells expressing the human wild-type RON, and HT29 cells expressing the delta 160 variant, were harvested using cell dissociation buffer (Invitrogen), washed twice with FACS buffer (PBS with 0.5% BSA), and treated for 10 minutes with Cyto Q Antibody diluent and FC receptor block (Innovex Biosciences, Richmond, Calif.). Purified antibodies were diluted in FACS buffer over a concentration range from 0.02 nM to 40 nM. Cells were incubated with 100 μl of antibody for one hour, washed with FACS buffer three times, and incubated for 45 minutes with goat anti-mouse PE-conjugated antibody (Jackson ImmunoResearch Laboratories, West Grove, Pa.). Cells were washed three times with FACS buffer, resuspended in 300 μl of FACS buffer, and analyzed using a Beckman Coulter Cytomics FC 500 FACS instrument.

[2] = target: T2, recombinant human RON SEMA and PSI domains (human, UniProt Q04912 25-571); assay: ECL competition, MSP binding to coated hRON SEMA+PSI; competitor MSP; average n=3
T2 construct: domain: SEMA+PSI; Commercial protein (R&D Systems); also called rhRON SEMA+PSI; hRON SEMA+PSI
Description: (§1) The biochemical neutralization assay measures inhibition of MSP binding to hRON by antibodies in hybridoma supernatants, using electrochemiluminescence (ECL). MA2400 96-well high binding plates (Meso Scale Discovery) were coated with 25 μl of 0.42 μg/mL hRON SEMA+PSI (an N-terminal portion of the ECD of hRON; R&D Systems) in PBS for one hour at room temperature with agitation. The plates were washed four times with PBS+0.1% Tween-20 (PBST), and blocked with 150 μl of charcoal-stripped fetal bovine serum (FBS) (Gibco). The hybridoma supernatant were added and incubated for 45 minutes at room temperature. After incubation, 5 μl of MSP (3 μg/mL) in charcoal stripped FBS was added to each well, and incubated for 45 minutes. The plate was washed four times with PBST, and 25 μl of 1 μg/mL biotinylated anti-MSP antibody (R&D Systems) was added to the plates for one hour at room temperature with agitation. The plates were washed four times with PBST, and incubated with 25 μl of 1 μg/mL ST-streptavidin (Meso Scale Discovery) for one hour at room temperature with agitation. The plates were washed four times with PBST, and 150 μl read buffer (Meso Scale Discovery) was added to each well before the plates were analyzed on a Sector Imager 2400 (Meso Scale Discovery) instrument. Antibodies 07F01, 18H09 and 29B06 each blocked MSP binding to hRON SEMA+PSI in this neutralization assay.
(§2) Antibodies 07F01, 12B11, 17F06, 18H09, and 29B06 were tested for inhibition of MSP binding to hRON SEMA+PSI, as measured by electrochemiluminescence (ECL) assay as described in Example 3. The antibodies (concentration range: 0.006-10 μg/mL) were incubated for 45 minutes at room temperature.

[3] = target: T1, human wild-type RON (cell surface); assay: FACS, 10 ug/ml antibody, PC3 cells, 4 C
Description: Binding to cell surface wild-type RON and delta 160 RON at 4° C. was determined for antibodies 07F01, 12B11, 17F06, 18H09, and 29B06, using FACS. Cells expressing wild-type RON (PC3), and cells expressing delta 160 RON (HT-29), were harvested using cell dissociation buffer (Invitrogen), washed twice with FACS buffer (0.5% BSA PBS) and treated with CytoQ Antibody diluent and FC receptor block (Innovex). Purified antibodies were diluted at a concentration of 10 μg/ml, in FACS buffer. Cells were incubated with 100 μl of antibody mix for one hour, washed with FACS buffer three times, and incubated for 45 minutes with goat anti-mouse PE conjugated antibody (Jackson Immunoresearch Laboratories). Cells were washed three times with FACS buffer, resuspended in 300 μl of FACS buffer and analyzed using a Beckman Coulter Cytomics FC 500 FACS instrument.

[4] = target: T2, recombinant human RON SEMA and PSI …; assay: ECL competition assay: antibody titrated on plate-coated hRON SEMA+PSI; blocked ligand MSP, detected with biotinylated anti-MSP antibody
Description: as §1, §2

Kd [1] [nM]	IC50 [2] [nM]	PC3 % cell surface binding [3] [%]	IC50 (read off the curve) [4] [nM]	Binder
0.133	1.11	99.1	~1	29B06 (antibody, mouse IgG1, kappa, Murine hybridoma monoclonal, IgG1/kappa; also called mu29B06; antibody 29B06) heavy: EVQLQESGPSLVKPSQTLSLTCSVTGDSITSGYWNWIRKFPGNKLEYMGYISYSGKTYYNPSLKSRISITRDTSKNHYYLQLISVTAEDTATYYCARSKYDYAMDYWGQGTSVTVSSAKTTPPSVYPLAPGSAAQTNSMVTLGCLVKGYFPEPVTVTWNSGSLSSGVHTFPAVLQSDLYTLSSSVTVPSSTWPSETVTCNVAHPASSTKVDKKIVPRDCGCKPCICTVPEVSSVFIFPPKPKDVLTITLTPKVTCVVVDISKDDPEVQFSWFVDDVEVHTAQTQPREEQFNSTFRSVSELPIMHQDWLNGKEFKCRVNSAAFPAPIEKTISKTKGRPKAPQVYTIPPPKEQMAKDKVSLTCMITDFFPEDITVEWQWNGQPAENYKNTQPIMDTDGSYFVYSKLNVQKSNWEAGNTFTCSVLHEGLHNHHTEKSLSHSPGK light: not shown
0.032	0.26	99.3	~0.3	07F01 (antibody, mouse IgG1, kappa, V domains shown, Murine hybridoma monoclonal, IgG1/kappa; also called mu07F01; antibody 07F01) VH: EVKLLESGGGLVQPGGSLKLSCAASGFDFSRHWMSWVRLAPGKGLEWIAEINPDSRTINYTPSLKEKFIISRDNAKNSLFLQMNRVRSEDTALYYCARRVRIHYYGAMDCWGQGTSVTVSS VL: DIVLTQSQKIVSTSVGARVSVTCKASQNVGSSLVWYQQKPGQSPKTLIYSASFRYSGVPDRFTGSGSGTDFTLTISNVQSEDLADYFCQQYNNYPLTFGAGTKLELKR
